Results as given in patent US20200071424A1 (SHIONOGI, published 2020).

Assays:
rabbit EL = rabbit EL (rabbit); test: cell-based or functional assay
[1] = molecular target: T1, human [1-305]-mouse chimeric EL (human; mouse, UniProt Q9WVG5 306-500); test: cell-based or functional assay
T1 sequence: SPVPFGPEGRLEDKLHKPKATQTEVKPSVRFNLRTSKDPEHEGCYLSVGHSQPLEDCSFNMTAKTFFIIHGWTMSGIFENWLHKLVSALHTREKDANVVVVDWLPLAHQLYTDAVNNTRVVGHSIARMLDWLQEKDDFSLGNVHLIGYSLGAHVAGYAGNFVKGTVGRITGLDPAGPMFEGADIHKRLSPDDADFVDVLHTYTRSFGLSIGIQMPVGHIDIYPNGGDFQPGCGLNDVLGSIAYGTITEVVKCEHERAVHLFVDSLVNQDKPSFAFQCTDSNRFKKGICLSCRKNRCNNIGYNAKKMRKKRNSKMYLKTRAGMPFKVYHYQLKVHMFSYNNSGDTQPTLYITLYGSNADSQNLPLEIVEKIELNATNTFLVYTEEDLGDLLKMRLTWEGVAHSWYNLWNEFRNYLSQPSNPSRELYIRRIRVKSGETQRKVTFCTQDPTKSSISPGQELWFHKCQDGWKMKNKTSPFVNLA

mouse EL [2] = molecular target: T2, mouse EL (mouse, UniProt Q9WVG5 21-500); test: cell-based or functional assay
T2 sequence (looked up): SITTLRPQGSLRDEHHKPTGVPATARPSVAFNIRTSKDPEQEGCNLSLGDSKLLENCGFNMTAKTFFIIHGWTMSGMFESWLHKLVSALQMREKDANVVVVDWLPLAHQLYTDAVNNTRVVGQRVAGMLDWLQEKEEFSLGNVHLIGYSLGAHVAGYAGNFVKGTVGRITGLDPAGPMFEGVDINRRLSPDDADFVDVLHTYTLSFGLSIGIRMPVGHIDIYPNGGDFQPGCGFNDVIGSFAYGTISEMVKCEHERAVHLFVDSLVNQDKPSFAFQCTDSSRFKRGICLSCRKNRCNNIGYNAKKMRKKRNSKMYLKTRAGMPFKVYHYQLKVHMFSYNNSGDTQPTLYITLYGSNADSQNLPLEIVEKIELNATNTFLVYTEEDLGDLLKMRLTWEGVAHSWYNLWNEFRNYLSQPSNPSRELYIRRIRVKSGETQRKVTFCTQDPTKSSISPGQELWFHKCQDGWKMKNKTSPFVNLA

baboon EL [3] = molecular target: baboon EL (baboon); test: cell-based or functional assay
[4] = molecular target: T1, human [1-305]-mouse chimeric EL; test: Biacore (as for the other anti-EL antibodies)
mouse EL [5] = molecular target: T2, mouse EL; test: Biacore (as for the other anti-EL antibodies)
baboon EL [6] = molecular target: T3, baboon EL (baboon); test: Biacore (as for the other anti-EL antibodies)
T3 construct: Heparin extract

[7] = molecular target: T1, human [1-305]-mouse chimeric EL; test: ELISA: antibody captured on anti-mouse IgG-Fc plate, EL heparin extract added, detection with biotin anti-C2-tag antibody and HRP-streptavidin, A450
Chimeric EL [187-500] = molecular target: T4, Chimeric EL [187-500] (mouse;human); test: as above
T4 construct: construct not described further; Used as heparin extract and detected through anti-C2-tag antibody; also called human (187-500) mouse chimera EL

baboon EL [8] = molecular target: T3, baboon EL; test: as above

Neutralizing activity IC50 (rabbit EL): 2.3 nM
Neutralizing activity IC50 [1]: 4 nM
Neutralizing activity IC50 (mouse EL [2]): 2.5 nM
Neutralizing activity IC50 (baboon EL [3]): 2.8 nM
Kd [4]: 14 nM
koff [4]: 0.004 s⁻¹
kon [4]: 330000 M⁻¹ s⁻¹
Kd (mouse EL [5]): 0.68 nM
koff (mouse EL [5]): 0.00015 s⁻¹
kon (mouse EL [5]): 220000 M⁻¹ s⁻¹
Kd (baboon EL [6]): 0.42 nM
koff (baboon EL [6]): 0.0001 s⁻¹
kon (baboon EL [6]): 240000 M⁻¹ s⁻¹
EC50 (read off the curve) [7]: ~0.002 µg/mL
EC50 (read off the curve) (Chimeric EL [187-500]): ~0.02 µg/mL
EC50 (read off the curve) (baboon EL [8]): ~0.02 µg/mL
B1: 16F6 (antibody, V domains shown)
VH: QVQLQQSGAELMKPGASVKISCKATGYTFSTYWIAWVKQRPGHGLEWIGEILPGSAKTKYNKKFKGKATFTADTSSNTAYMQLSSLTSEDSAVYYCAVYDYGADYWGQGTSVTVSS
VL: DIVMTQSHKFMSTSVGDRVSITCKASQDVYTAVAWYQQKPGQSPKLLIYSASYRFTGVPDRFTGSGAGTEFTFTINSVQAEDLAVYYCQQHYSIPRTFGGGTKLEIK
notes: mouse IgG1 raised in EL knock-out mice; not tied one by one
